The values that follow come from US20230227520A1 (MAX PLANCK GESELLSCHAFT ZUR F RDERUNG DER WISSENSCHAFTEN E V, published 2023).

Assay [1] concerns the target G-CSFR on NFS-60 cells (murine myeloblastic cell line) (mouse) (UniProt P40223). Briefly: cell-based or functional assay.
Assay [2] deals with T1, G-CSFR on NFS-60 cells (murine myeloblastic cell line) (mouse, UniProt P40223 26-837).
T1 sequence (looked up): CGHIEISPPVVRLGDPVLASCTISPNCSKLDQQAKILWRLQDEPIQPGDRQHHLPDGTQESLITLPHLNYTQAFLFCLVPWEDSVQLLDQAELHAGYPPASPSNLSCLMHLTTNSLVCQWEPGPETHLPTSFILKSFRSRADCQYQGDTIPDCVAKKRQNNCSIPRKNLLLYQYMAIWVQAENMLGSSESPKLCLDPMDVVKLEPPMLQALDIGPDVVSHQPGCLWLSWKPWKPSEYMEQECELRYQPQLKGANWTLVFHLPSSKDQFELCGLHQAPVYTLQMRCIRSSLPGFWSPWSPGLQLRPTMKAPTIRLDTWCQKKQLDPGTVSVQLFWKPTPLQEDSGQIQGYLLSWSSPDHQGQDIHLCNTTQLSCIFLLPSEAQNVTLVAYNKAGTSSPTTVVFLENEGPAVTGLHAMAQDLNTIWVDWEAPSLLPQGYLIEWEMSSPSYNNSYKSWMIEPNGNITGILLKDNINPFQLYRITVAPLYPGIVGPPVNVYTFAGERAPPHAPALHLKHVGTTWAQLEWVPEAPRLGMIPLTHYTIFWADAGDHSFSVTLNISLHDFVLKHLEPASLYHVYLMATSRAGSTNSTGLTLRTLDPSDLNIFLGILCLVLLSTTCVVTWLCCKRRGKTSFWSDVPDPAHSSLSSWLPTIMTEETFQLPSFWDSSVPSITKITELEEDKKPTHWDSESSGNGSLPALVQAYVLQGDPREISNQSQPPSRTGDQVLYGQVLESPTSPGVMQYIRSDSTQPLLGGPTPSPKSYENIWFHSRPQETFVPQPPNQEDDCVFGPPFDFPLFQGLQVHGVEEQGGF
Briefly: cell-based or functional assay.

In assay [3] the target is T2, G-CSF Receptor (G-CSFR) (R&D systems 381-GR-050/CF), recombinant human (human, UniProt Q99062 25-627, limits assumed).
T2 construct: Bought protein, amine-coupled to a CM5 chip; also called rhG-CSFR; human G-CSF receptor
T2 sequence (looked up): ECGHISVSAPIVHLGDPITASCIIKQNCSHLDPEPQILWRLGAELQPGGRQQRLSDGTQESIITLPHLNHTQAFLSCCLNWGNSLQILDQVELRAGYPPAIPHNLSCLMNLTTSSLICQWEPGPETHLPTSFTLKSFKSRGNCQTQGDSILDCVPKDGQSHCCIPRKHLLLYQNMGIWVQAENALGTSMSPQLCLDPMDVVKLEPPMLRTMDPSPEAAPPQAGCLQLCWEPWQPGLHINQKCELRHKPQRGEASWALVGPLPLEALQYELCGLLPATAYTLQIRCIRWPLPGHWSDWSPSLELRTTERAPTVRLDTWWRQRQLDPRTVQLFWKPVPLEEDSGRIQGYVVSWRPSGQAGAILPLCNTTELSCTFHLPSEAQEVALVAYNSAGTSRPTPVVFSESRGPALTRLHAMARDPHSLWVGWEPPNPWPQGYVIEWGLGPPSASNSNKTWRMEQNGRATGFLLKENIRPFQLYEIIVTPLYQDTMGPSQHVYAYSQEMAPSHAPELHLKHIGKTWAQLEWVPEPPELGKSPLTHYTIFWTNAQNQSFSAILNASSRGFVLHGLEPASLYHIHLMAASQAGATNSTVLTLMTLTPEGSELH
Briefly: SPR, Biacore X100, G-CSFR amine-coupled on CM5, 2nd order kinetics model. On the procedure:
(§1) Single-cycle kinetics experiments were performed on a Biacore X100 system (GE Healthcare Life Sciences). G-CSF Receptor (G-CSFR) (R&D systems 381-GR-050/CF) was diluted to 50 μg/ml in 10 mM acetate buffer pH 5.0 and immobilized on the surface of a CM5 sensor chip (GE Healthcare 29149604) using standard amine coupling chemistry. The designs and rhG-CSF (USP RS Filgrastim, Sigma-Aldrich 1270435) were diluted in running buffer (10 mM HEPES, 150 mM NaCl, 3.4 mM EDTA, 0.005% v/v Tween-20). Analyses were conducted at 25° C. at a flow rate of 30 μl/min. Five sequential 10-fold increasing concentrations of the sample solution (for the designs from 0.5 nM to 50 μM, and for rhG-CSF from 0.05 to 500 nM) were injected over the functionalized sensor chip surface for 180 s, followed by a 180 s dissociation with running buffer. At the end of each run, the sensor surface was regenerated with a 240 s injection of 10 mM glycine-HCl pH 2.0. Each experiment was performed two times for rhG-CSF, Boskar3, Boskar4, diSohair2, Moevan, and Moevan_t2. Association rate (ka), dissociation rate (kd), and equilibrium dissociation (Kd) constants were initially obtained by global fitting of the experimental reference-subtracted data to a 1:1 interaction model using the Biacore X100 evaluation software (v.2.0.1). To evaluate if a kinetics model that depends on double the analyte stoichiometry improves the goodness of fit to the data, the following rate integral was used: […]

In assay [4] the target is T2, G-CSF Receptor (G-CSFR) (R&D systems …). Description: SPR, Biacore X100, G-CSFR amine-coupled on CM5, 2nd order kinetics model, second run. On the procedure:
(§2) To obtain a more detailed picture on the nature of the binding, the inventors fitted the highest concentration sensorgram curves using higher order kinetics models. […] While this higher-order interaction model better explains the data than a 1:1 binding model, a clear deviation remained for rhG-CSF sensorgrams.
(§3) Single-cycle kinetics experiments were performed on a Biacore X100 system (GE Healthcare Life Sciences). G-CSF Receptor (G-CSFR) (R&D systems 381-GR-050/CF) was diluted to 50 μg/ml in 10 mM acetate buffer pH 5.0 and immobilized on the surface of a CM5 sensor chip (GE Healthcare 29149604) using standard amine coupling chemistry. The designs and rhG-CSF (USP RS Filgrastim, Sigma-Aldrich 1270435) were diluted in running buffer (10 mM HEPES, 150 mM NaCl, 3.4 mM EDTA, 0.005% v/v Tween-20). Analyses were conducted at 25° C. at a flow rate of 30 μl/min. Five sequential 10-fold increasing concentrations of the sample solution (for the designs from 0.5 nM to 50 μM, and for rhG-CSF from 0.05 to 500 nM) were injected over the functionalized sensor chip surface for 180 s, followed by a 180 s dissociation with running buffer. At the end of each run, the sensor surface was regenerated with a 240 s injection of 10 mM glycine-HCl pH 2.0. Each experiment was performed two times for rhG-CSF, Boskar3, Boskar4, diSohair2, Moevan, and Moevan_t2. Association rate (ka), dissociation rate (kd), and equilibrium dissociation (Kd) constants were initially obtained by global fitting of the experimental reference-subtracted data to a 1:1 interaction model using the Biacore X100 evaluation software (v.2.0.1).
A general note: SPR reads the build-up and loss of mass on a sensor chip optically.

Assay [5] shares this target. Briefly: SPR, Biacore X100 single-cycle kinetics, G-CSFR amine-coupled on CM5, 1:1 binding model. On the procedure: as §1
For assay [6] the target is unchanged. Description: SPR, Biacore X100 single-cycle kinetics, G-CSFR amine-coupled on CM5, 1:1 binding model, second run. On the procedure: as §1
For assay [7] the target is unchanged. Description: SPR, 1:1 binding, value for the two runs together as told in the text; 1:1 binding, injection dilution series. On the procedure: as §2
as §3, with “Association rate (ka), dissociation rate (kd), and equilibrium dissociation (Kd) constants were initially obtained by global fitting of the experimental reference-subtracted data to a 1:1 interaction model using the Biacore X100 evaluation software (v.2.0.1).” left out

Assay [8] shares this target. Briefly: SPR, second-order reaction model, value as told in the text; second-order reaction model, highest concentration sensorgram. On the procedure:
as §2, §3

For assay [9] the target is unchanged. Briefly: SPR, Biacore X100 single-cycle kinetics, G-CSFR amine-coupled on CM5, 1:1 binding model. On the procedure:
To test whether the grafted epitope residues mediate binding of the designs to the G-CSF receptor, the inventors also performed SPR measurements for the Moevan and diSohair2 initial design templates (Moevan_control and diSohair_control, respectively), and no binding was observed (FIG. 20C,F).
as §1
The source holds these as a separate data set.

Assay [10] has the same target. Briefly: SPR (Biacore), G-CSFR immobilised on the chip, Moevan 2 nM - 32 nM as analyte, five traces with binding model fit [panel D].

The molecule “csf_2d9q|WILD_TYPE G-CSF (from UniProt P09919 37-204) (ligand)” displayed an NFS-60 EC50 (ng/mL), proliferation of NFS-60 cells in assay [1] of 0.055 ng/mL.

B1: Boskar_4 (designed binder)
chain: AALAAALAEIYKGLAEYQARLKSLEGISPELGPALDALRLDMADFATTMAQAMEEGLDSLPQSFLLKALEQIRKIQADAAALREKLAATYKGNDRAAAAVEIAAQLEAFLEKAYQILRHLAAA
As to B1, the “NFS-60 EC50 (ng/mL), proliferation of NFS-60 cells” value (from here on “NFS-60 EC50 (ng/mL), proliferation”) in assay [2] is 27 ng/mL. For the same molecule, the Kd stood at 6400 nM in [3]; 5800 nM in assay [4]; 8.5 nM in [5]; 1.7 nM in assay [6]; 5.1 nM in assay [7]; 6100 nM in [8]. The koff worked out at 0.0095 s⁻¹ in [3], 0.008 s⁻¹ in assay [4], 0.0045 s⁻¹ in assay [5] and 0.0015 s⁻¹ in [6]. Moreover, the kon in assay [3] stood at 1500 M⁻¹ s⁻¹; in assay [4], 1400 M⁻¹ s⁻¹; in assay [5] it was 520000 M⁻¹ s⁻¹; in assay [6], 890000 M⁻¹ s⁻¹.

B2: Moevan (designed binder)
chain: MEAAAAARDESAYLKLQEQMRKIDADAAALSETRTIEELDTFKLDVADFVTTVVQLAEELEHRFGRNRRGRTEIYKIVKEVDRKLLDLTDAVLAKEKKGEDILNMVAEIKALLINIYK
notes: also called Movean
For the molecule B2, in [2], the “NFS-60 EC50 (ng/mL), proliferation” value stood at 356 ng/mL. For the same molecule, in assay [9], the equilibrium dissociation constant (Kd) was found to be 21 nM, the koff turned out to be 0.0059 s⁻¹ and the kon came to 290000 M⁻¹ s⁻¹. In assay [10], the Kd was determined as 21.7 nM, the koff turned out to be 0.00599 s⁻¹ and the kon worked out at 275000 M⁻¹ s⁻¹.

B3: Boskar_3 (designed binder)
chain: AALAAVLAEIYKGLAEYQARLQSLEGISPELGPALDALRLDVADFATTIAQAMEENKGPLPQSFLLKALEQIRKIQADAAALREKLAATYPSSQRAAAAVEIAAQLEAFLEKAYEILRHLAAA
B3: the “NFS-60 EC50 (ng/mL), proliferation” value in assay [2] amounted to 768 ng/mL. Further, the Kd in [3] worked out at 6000 nM; in assay [4], 2600 nM; in assay [5], 12 nM; in [6] it was 16 nM; in assay [7] it was 14 nM; in assay [8] it was 4400 nM. The koff was 0.0047 s⁻¹ in assay [3], 0.0058 s⁻¹ in assay [4], 0.0015 s⁻¹ in assay [5] and 0.0019 s⁻¹ in assay [6]. In addition, the association rate constant (kon) in assay [3] turned out to be 780 M⁻¹ s⁻¹; in [4], 2200 M⁻¹ s⁻¹; in assay [5], 130000 M⁻¹ s⁻¹; in assay [6] it was 120000 M⁻¹ s⁻¹.

One may read the Kd as the equilibrium constant for the complex coming apart. One may read the koff as the rate constant with which the complex falls apart. Broadly, the kon is the rate constant with which the complex forms.
